Read-outs that look alike come from different tables or passages of the source. Blank lines part the entries; values can stand above or below the molecule they belong to.
Legend:
ADAMTS1 (Homo sapiens) = ADAMTS1 (Homo sapiens) (UniProt Q9UHI8); conditions: cited from earlier work
[1] = target: Versican G3 (Homo sapiens) (UniProt P13611); conditions: cited from earlier work
[2] = target: Quenched-fluorescent peptide substrate fluorescein-5(6)-carbonyl-Ala-Glu-Leu-Asn-Gly-Arg-Pro-Ile-Ser-Ile-Ala-Lys(5(6)-TAMRA)
[3] = target: Versican V1-5GAG (truncated V1, residues 21-694) (UniProt P13611)
[4] = target: Versican V1-5GAG (truncated V1, residues 21-694) (UniProt P13611); remark: listed apart in the source

Molecule: Fibulin-1 (from UniProt P23142)
Kd (ADAMTS1 (Homo sapiens)): 1000 nM

Molecule: Fibulin-1 domain II (from UniProt P23142)
Kd [1]: 26 nM

kcat/Km for proteolysis of the QF peptide [2]: 7600 M⁻¹ s⁻¹
kcat/Km for cleavage of V1-5GAG (50 nM), time course with versikine ELISA [3]: 7300 M⁻¹ s⁻¹
Molecule: ADAMTS1 variant MDTCS (truncated after the spacer domain) (domain or fragment)

kcat/Km for proteolysis of the QF peptide [2]: 6100 M⁻¹ s⁻¹
kcat/Km for cleavage of V1-5GAG (50 nM), time course with versikine ELISA [3]: 61 M⁻¹ s⁻¹
Molecule: ADAMTS1 variant MD (truncated after the disintegrin-like domain) (domain or fragment)

kcat/Km for proteolysis of the QF peptide [2]: 6200 M⁻¹ s⁻¹
kcat/Km for cleavage of V1-5GAG (50 nM), time course with versikine ELISA [3]: 66 M⁻¹ s⁻¹
Molecule: ADAMTS1 variant MDT (truncated after the central TSR motif) (domain or fragment)

kcat/Km for cleavage of V1-5GAG (50 nM), time course with versikine ELISA [4]: 460 M⁻¹ s⁻¹
B1: ADAMTS1 variant 756-765/828-835 (β3-β4 and β9-β10 loops replaced by those of ADAMTS4) (enzyme)
chain: FVSSHRYVETMLVADQSMAEFHGSGLKHYLLTLFSVAARLYKHPSIRNSVSLVVVKILVIHDEQKGPEVTSNAALTLRNFCNWQKQHNPPSDRDAEHYDTAILFTRQDLCGSQTCDTLGMADVGTVCDPSRSCSVIEDDGLQAAFTTAHELGHVFNMPHDDAKQCASLNGVNQDSHMMASMLSNLDHSQPWSPCSAYMITSFLDNGHGECLMDKPQNPIQLPGDLPGTSYDANRQCQFTFGEDSKHCPDAASTCSTLWCTGTSGGVLVCQTKHFPWADGTSCGEGKWCINGKCVNKTDRKHFDTPFHGSWGMWGPWGDCSRTCGGGVQYTMRECDNPVPKNGGKYCEGKRVRYRSCNLEDCPDNNGKTFREEQCEAHNEFSKASFGSGPAVEWIPKYAGVSPKDRCKLICQAKGIGYFFVLQPKVVDGTPCSPDSTSVCVQGQCVKAGCDRIIDSKKKFDKCGVCGGNGSTCKKISGSVTSAKPGYHDIITIPTGATNIEVKQQGNPGHRSSFLAIKAADGTYILNGDYTLSTLEQDIMYKGVVLRYSGSSAALERIRSFSPLKEPLTIQVLTAGNPQDTRIKYTYFVKKKKESFNAIPTFSAWVIEEWGECSKSCELGWQRRLVECRDINGQPASECAKEVKPASTRPCADHPCPQWQLGEWSSCSKTCGKGYKKRSLKCLSHDGGVLSHESCDPLKKPKHFIDFCTMAECS

kcat/Km for cleavage of V1-5GAG (50 nM), time course with versikine ELISA [4]: 4800 M⁻¹ s⁻¹
B2: ADAMTS1 K735Q (β1-β2 loop of the spacer domain) (enzyme)
chain: FVSSHRYVETMLVADQSMAEFHGSGLKHYLLTLFSVAARLYKHPSIRNSVSLVVVKILVIHDEQKGPEVTSNAALTLRNFCNWQKQHNPPSDRDAEHYDTAILFTRQDLCGSQTCDTLGMADVGTVCDPSRSCSVIEDDGLQAAFTTAHELGHVFNMPHDDAKQCASLNGVNQDSHMMASMLSNLDHSQPWSPCSAYMITSFLDNGHGECLMDKPQNPIQLPGDLPGTSYDANRQCQFTFGEDSKHCPDAASTCSTLWCTGTSGGVLVCQTKHFPWADGTSCGEGKWCINGKCVNKTDRKHFDTPFHGSWGMWGPWGDCSRTCGGGVQYTMRECDNPVPKNGGKYCEGKRVRYRSCNLEDCPDNNGKTFREEQCEAHNEFSKASFGSGPAVEWIPKYAGVSPKDRCKLICQAKGIGYFFVLQPKVVDGTPCSPDSTSVCVQGQCVKAGCDRIIDSKKKFDKCGVCGGNGSTCKKISGSVTSAQPGYHDIITIPTGATNIEVKQRNQRGSRNNGSFLAIKAADGTYILNGDYTLSTLEQDIMYKGVVLRYSGSSAALERIRSFSPLKEPLTIQVLTVGNALRPKIKYTYFVKKKKESFNAIPTFSAWVIEEWGECSKSCELGWQRRLVECRDINGQPASECAKEVKPASTRPCADHPCPQWQLGEWSSCSKTCGKGYKKRSLKCLSHDGGVLSHESCDPLKKPKHFIDFCTMAECS

kcat/Km for cleavage of V1-5GAG (50 nM), time course with versikine ELISA [4]: 410 M⁻¹ s⁻¹
B3: ADAMTS1 variant 828-835 (β9-β10 loop residues 828-835 replaced by ADAMTS4 residues 788-795) (enzyme)
chain: FVSSHRYVETMLVADQSMAEFHGSGLKHYLLTLFSVAARLYKHPSIRNSVSLVVVKILVIHDEQKGPEVTSNAALTLRNFCNWQKQHNPPSDRDAEHYDTAILFTRQDLCGSQTCDTLGMADVGTVCDPSRSCSVIEDDGLQAAFTTAHELGHVFNMPHDDAKQCASLNGVNQDSHMMASMLSNLDHSQPWSPCSAYMITSFLDNGHGECLMDKPQNPIQLPGDLPGTSYDANRQCQFTFGEDSKHCPDAASTCSTLWCTGTSGGVLVCQTKHFPWADGTSCGEGKWCINGKCVNKTDRKHFDTPFHGSWGMWGPWGDCSRTCGGGVQYTMRECDNPVPKNGGKYCEGKRVRYRSCNLEDCPDNNGKTFREEQCEAHNEFSKASFGSGPAVEWIPKYAGVSPKDRCKLICQAKGIGYFFVLQPKVVDGTPCSPDSTSVCVQGQCVKAGCDRIIDSKKKFDKCGVCGGNGSTCKKISGSVTSAKPGYHDIITIPTGATNIEVKQRNQRGSRNNGSFLAIKAADGTYILNGDYTLSTLEQDIMYKGVVLRYSGSSAALERIRSFSPLKEPLTIQVLTAGNPQDTRIKYTYFVKKKKESFNAIPTFSAWVIEEWGECSKSCELGWQRRLVECRDINGQPASECAKEVKPASTRPCADHPCPQWQLGEWSSCSKTCGKGYKKRSLKCLSHDGGVLSHESCDPLKKPKHFIDFCTMAECS

kcat/Km for cleavage of V1-5GAG (50 nM), time course with versikine ELISA [4]: 6050 M⁻¹ s⁻¹
B4: ADAMTS1 K818Q (β8-β9 loop of the spacer domain) (enzyme)
chain: FVSSHRYVETMLVADQSMAEFHGSGLKHYLLTLFSVAARLYKHPSIRNSVSLVVVKILVIHDEQKGPEVTSNAALTLRNFCNWQKQHNPPSDRDAEHYDTAILFTRQDLCGSQTCDTLGMADVGTVCDPSRSCSVIEDDGLQAAFTTAHELGHVFNMPHDDAKQCASLNGVNQDSHMMASMLSNLDHSQPWSPCSAYMITSFLDNGHGECLMDKPQNPIQLPGDLPGTSYDANRQCQFTFGEDSKHCPDAASTCSTLWCTGTSGGVLVCQTKHFPWADGTSCGEGKWCINGKCVNKTDRKHFDTPFHGSWGMWGPWGDCSRTCGGGVQYTMRECDNPVPKNGGKYCEGKRVRYRSCNLEDCPDNNGKTFREEQCEAHNEFSKASFGSGPAVEWIPKYAGVSPKDRCKLICQAKGIGYFFVLQPKVVDGTPCSPDSTSVCVQGQCVKAGCDRIIDSKKKFDKCGVCGGNGSTCKKISGSVTSAKPGYHDIITIPTGATNIEVKQRNQRGSRNNGSFLAIKAADGTYILNGDYTLSTLEQDIMYKGVVLRYSGSSAALERIRSFSPLQEPLTIQVLTVGNALRPKIKYTYFVKKKKESFNAIPTFSAWVIEEWGECSKSCELGWQRRLVECRDINGQPASECAKEVKPASTRPCADHPCPQWQLGEWSSCSKTCGKGYKKRSLKCLSHDGGVLSHESCDPLKKPKHFIDFCTMAECS

kcat/Km for cleavage of V1-5GAG (50 nM), time course with versikine ELISA [4]: 730 M⁻¹ s⁻¹
B5: ADAMTS1 K795Q (β6-β7 loop of the spacer domain) (enzyme)
chain: FVSSHRYVETMLVADQSMAEFHGSGLKHYLLTLFSVAARLYKHPSIRNSVSLVVVKILVIHDEQKGPEVTSNAALTLRNFCNWQKQHNPPSDRDAEHYDTAILFTRQDLCGSQTCDTLGMADVGTVCDPSRSCSVIEDDGLQAAFTTAHELGHVFNMPHDDAKQCASLNGVNQDSHMMASMLSNLDHSQPWSPCSAYMITSFLDNGHGECLMDKPQNPIQLPGDLPGTSYDANRQCQFTFGEDSKHCPDAASTCSTLWCTGTSGGVLVCQTKHFPWADGTSCGEGKWCINGKCVNKTDRKHFDTPFHGSWGMWGPWGDCSRTCGGGVQYTMRECDNPVPKNGGKYCEGKRVRYRSCNLEDCPDNNGKTFREEQCEAHNEFSKASFGSGPAVEWIPKYAGVSPKDRCKLICQAKGIGYFFVLQPKVVDGTPCSPDSTSVCVQGQCVKAGCDRIIDSKKKFDKCGVCGGNGSTCKKISGSVTSAKPGYHDIITIPTGATNIEVKQRNQRGSRNNGSFLAIKAADGTYILNGDYTLSTLEQDIMYQGVVLRYSGSSAALERIRSFSPLKEPLTIQVLTVGNALRPKIKYTYFVKKKKESFNAIPTFSAWVIEEWGECSKSCELGWQRRLVECRDINGQPASECAKEVKPASTRPCADHPCPQWQLGEWSSCSKTCGKGYKKRSLKCLSHDGGVLSHESCDPLKKPKHFIDFCTMAECS

kcat/Km for cleavage of V1-5GAG (50 nM), time course with versikine ELISA [4]: 870 M⁻¹ s⁻¹
B6: ADAMTS1 R756Q/R759Q/R762Q (β3-β4 loop of the spacer domain) (enzyme)
chain: FVSSHRYVETMLVADQSMAEFHGSGLKHYLLTLFSVAARLYKHPSIRNSVSLVVVKILVIHDEQKGPEVTSNAALTLRNFCNWQKQHNPPSDRDAEHYDTAILFTRQDLCGSQTCDTLGMADVGTVCDPSRSCSVIEDDGLQAAFTTAHELGHVFNMPHDDAKQCASLNGVNQDSHMMASMLSNLDHSQPWSPCSAYMITSFLDNGHGECLMDKPQNPIQLPGDLPGTSYDANRQCQFTFGEDSKHCPDAASTCSTLWCTGTSGGVLVCQTKHFPWADGTSCGEGKWCINGKCVNKTDRKHFDTPFHGSWGMWGPWGDCSRTCGGGVQYTMRECDNPVPKNGGKYCEGKRVRYRSCNLEDCPDNNGKTFREEQCEAHNEFSKASFGSGPAVEWIPKYAGVSPKDRCKLICQAKGIGYFFVLQPKVVDGTPCSPDSTSVCVQGQCVKAGCDRIIDSKKKFDKCGVCGGNGSTCKKISGSVTSAKPGYHDIITIPTGATNIEVKQQNQQGSQNNGSFLAIKAADGTYILNGDYTLSTLEQDIMYKGVVLRYSGSSAALERIRSFSPLKEPLTIQVLTVGNALRPKIKYTYFVKKKKESFNAIPTFSAWVIEEWGECSKSCELGWQRRLVECRDINGQPASECAKEVKPASTRPCADHPCPQWQLGEWSSCSKTCGKGYKKRSLKCLSHDGGVLSHESCDPLKKPKHFIDFCTMAECS

kcat/Km for cleavage of V1-5GAG (50 nM), time course with versikine ELISA [4]: 570 M⁻¹ s⁻¹
B7: ADAMTS1 K735Q/K795Q (β1-β2 and β6-β7 loops of the spacer domain) (enzyme)
chain: FVSSHRYVETMLVADQSMAEFHGSGLKHYLLTLFSVAARLYKHPSIRNSVSLVVVKILVIHDEQKGPEVTSNAALTLRNFCNWQKQHNPPSDRDAEHYDTAILFTRQDLCGSQTCDTLGMADVGTVCDPSRSCSVIEDDGLQAAFTTAHELGHVFNMPHDDAKQCASLNGVNQDSHMMASMLSNLDHSQPWSPCSAYMITSFLDNGHGECLMDKPQNPIQLPGDLPGTSYDANRQCQFTFGEDSKHCPDAASTCSTLWCTGTSGGVLVCQTKHFPWADGTSCGEGKWCINGKCVNKTDRKHFDTPFHGSWGMWGPWGDCSRTCGGGVQYTMRECDNPVPKNGGKYCEGKRVRYRSCNLEDCPDNNGKTFREEQCEAHNEFSKASFGSGPAVEWIPKYAGVSPKDRCKLICQAKGIGYFFVLQPKVVDGTPCSPDSTSVCVQGQCVKAGCDRIIDSKKKFDKCGVCGGNGSTCKKISGSVTSAQPGYHDIITIPTGATNIEVKQRNQRGSRNNGSFLAIKAADGTYILNGDYTLSTLEQDIMYQGVVLRYSGSSAALERIRSFSPLKEPLTIQVLTVGNALRPKIKYTYFVKKKKESFNAIPTFSAWVIEEWGECSKSCELGWQRRLVECRDINGQPASECAKEVKPASTRPCADHPCPQWQLGEWSSCSKTCGKGYKKRSLKCLSHDGGVLSHESCDPLKKPKHFIDFCTMAECS
